The target in the assay is PP2A:B55 holoenzyme (PP2Aa, B55, PP2Ac) (UniProt P30153).

*1 amine or outer side, *2 acyl side, *3 side chain or, on linkers, in order; H or OH if unused. Where no end group is shown, it is not given here. [ ]: non-standard residue; d: D form. tpS = thiophosphoserine, O=C([C@H](COP(O)(O)=S)N[*:1])[*:2]

PP2A:B55 holoenzyme (PP2Aa, B55, PP2Ac), sequence (P30153 9-589, chain 1 of 3): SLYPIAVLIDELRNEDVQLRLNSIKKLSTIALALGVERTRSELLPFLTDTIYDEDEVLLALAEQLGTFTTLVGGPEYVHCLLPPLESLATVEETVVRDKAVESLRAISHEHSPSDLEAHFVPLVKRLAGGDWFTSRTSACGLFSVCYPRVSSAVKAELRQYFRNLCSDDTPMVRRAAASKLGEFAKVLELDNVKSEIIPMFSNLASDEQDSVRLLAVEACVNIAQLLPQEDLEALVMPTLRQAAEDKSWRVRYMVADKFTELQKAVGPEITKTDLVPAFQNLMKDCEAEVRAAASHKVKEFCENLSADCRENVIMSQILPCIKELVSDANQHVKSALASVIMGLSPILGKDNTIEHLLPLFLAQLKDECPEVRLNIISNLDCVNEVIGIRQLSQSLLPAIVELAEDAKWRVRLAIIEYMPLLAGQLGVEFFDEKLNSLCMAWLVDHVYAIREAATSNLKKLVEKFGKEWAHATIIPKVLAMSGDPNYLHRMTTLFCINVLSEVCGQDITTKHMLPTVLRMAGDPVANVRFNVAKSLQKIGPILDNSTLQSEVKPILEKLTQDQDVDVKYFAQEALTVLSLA
PP2A:B55 holoenzyme (PP2Aa, B55, PP2Ac), sequence (P63151 whole entry, chain 2 of 3, further chain): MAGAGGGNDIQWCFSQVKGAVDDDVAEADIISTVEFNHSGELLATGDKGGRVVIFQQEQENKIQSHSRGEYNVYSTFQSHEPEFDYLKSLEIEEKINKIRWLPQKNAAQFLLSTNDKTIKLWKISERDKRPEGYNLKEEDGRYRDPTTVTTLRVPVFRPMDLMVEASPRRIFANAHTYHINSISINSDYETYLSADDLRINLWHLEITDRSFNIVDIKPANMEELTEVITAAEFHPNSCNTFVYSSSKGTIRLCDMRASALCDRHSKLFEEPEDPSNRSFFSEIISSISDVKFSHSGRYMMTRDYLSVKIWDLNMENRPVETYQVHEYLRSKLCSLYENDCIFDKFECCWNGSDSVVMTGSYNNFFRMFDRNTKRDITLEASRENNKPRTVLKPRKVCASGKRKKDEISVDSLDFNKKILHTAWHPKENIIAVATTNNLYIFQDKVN
PP2A:B55 holoenzyme (PP2Aa, B55, PP2Ac), sequence (P67775 whole entry, chain 3 of 3, further chain): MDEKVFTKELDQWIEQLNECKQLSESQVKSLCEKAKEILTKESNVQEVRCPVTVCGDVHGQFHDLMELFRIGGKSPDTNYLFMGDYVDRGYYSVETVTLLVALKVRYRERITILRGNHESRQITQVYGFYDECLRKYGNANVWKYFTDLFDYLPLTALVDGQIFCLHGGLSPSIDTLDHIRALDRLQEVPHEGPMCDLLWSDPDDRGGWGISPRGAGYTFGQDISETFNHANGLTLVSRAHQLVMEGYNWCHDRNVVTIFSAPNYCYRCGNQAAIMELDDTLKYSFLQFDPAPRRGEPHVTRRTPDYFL

B1: tpARPP19_(19–75) (domain or fragment)
chain: DKVTSPEKAEEAKLKARYPHLGQKPGGSDFLRKRLQKGQKYFD[tpS]GDYNMAKAKMKNK
modifications: also: thiophosphorylated, site not given here
B1: the IC50 of PP2A:B55 inhibition (DiFMUP), against tpARPP19 was greater than 50 fold.

The record behind these values is paper PMC10765524.
